From article PMC2148137 (The Journal of Cell Biology, 1998) come the findings set out here.

In the test the target is T1, GST–Kic1p full-length fusion (S. cerevisiae, UniProt P38692 1-1080).
T1 sequence (looked up): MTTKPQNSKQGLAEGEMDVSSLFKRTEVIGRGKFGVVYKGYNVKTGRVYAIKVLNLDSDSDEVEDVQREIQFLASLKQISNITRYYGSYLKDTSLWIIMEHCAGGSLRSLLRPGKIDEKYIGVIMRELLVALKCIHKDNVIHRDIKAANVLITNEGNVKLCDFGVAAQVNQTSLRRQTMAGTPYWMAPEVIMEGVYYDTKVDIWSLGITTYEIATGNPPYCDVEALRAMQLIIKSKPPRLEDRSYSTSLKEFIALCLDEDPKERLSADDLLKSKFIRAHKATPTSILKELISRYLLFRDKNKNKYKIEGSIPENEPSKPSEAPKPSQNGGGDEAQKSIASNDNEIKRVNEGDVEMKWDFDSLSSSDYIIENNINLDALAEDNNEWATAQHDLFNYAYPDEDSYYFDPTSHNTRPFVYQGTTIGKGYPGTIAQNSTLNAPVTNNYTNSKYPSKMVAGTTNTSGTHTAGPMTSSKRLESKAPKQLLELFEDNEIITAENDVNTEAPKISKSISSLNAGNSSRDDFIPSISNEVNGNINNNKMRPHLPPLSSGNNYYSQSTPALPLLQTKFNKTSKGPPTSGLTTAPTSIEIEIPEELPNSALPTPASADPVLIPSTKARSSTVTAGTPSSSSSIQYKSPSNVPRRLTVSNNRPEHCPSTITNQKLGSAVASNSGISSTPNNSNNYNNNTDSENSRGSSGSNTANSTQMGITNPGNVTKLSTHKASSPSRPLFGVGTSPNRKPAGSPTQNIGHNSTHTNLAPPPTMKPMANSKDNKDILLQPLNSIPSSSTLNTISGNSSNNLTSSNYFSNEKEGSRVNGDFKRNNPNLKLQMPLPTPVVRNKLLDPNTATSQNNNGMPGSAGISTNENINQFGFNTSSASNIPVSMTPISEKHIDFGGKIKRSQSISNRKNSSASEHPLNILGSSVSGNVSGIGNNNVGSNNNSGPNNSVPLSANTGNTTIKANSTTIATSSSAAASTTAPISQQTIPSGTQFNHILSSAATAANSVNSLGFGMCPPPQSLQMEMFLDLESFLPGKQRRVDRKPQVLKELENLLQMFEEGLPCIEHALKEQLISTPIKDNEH
Nature of the test: far-Western, overlay or dot blot.

B1: radiolabeled Cdc31p purified from bacteria (natural protein, S. cerevisiae, UniProt P06704 1-161, looked up)
chain: MSKNRSSLQSGPLNSELLEEQKQEIYEAFSLFDMNNDGFLDYHELKVAMKALGFELPKREILDLIDEYDSEGRHLMKYDDFYIVMGEKILKRDPLDEIKRAFQLFDDDHTGKISIKNLRRVAKELGETLTDEELRAMIEEFDLDGDGEINENEFIAICTDS
modifications: radiolabeled
Turning to B1, the binding result was “binds”.
